Reference: patent US20080070298, “Promoter of Synoviolin Gene” (published 2008)

Legend:
Conditions in all cases: label: 32P
GABPα/GABPβ complex = GABPα/GABPβ complex (UniProt Q00422;Q00420 Q00422:1-454,Q00420:2-383); assay: EMSA; new complex bands on adding GABPβ to GABPα; GABPβ antibody interferes with complex a
Procedure: (§1) Next, T4 […] kinase, buffer andy γ³²P were mixed and the mixture was reacted for 30 minutes at room temperature. The reaction solution was passed through a Micro Spin G-25 column (Amersham Pharmacia Biotech), and the collected column fraction was centrifuged to obtain labeled probes. Those having radioactivity of 30000 cpm or more per 1 µl were used.
(§2) 10 μg of protein was mixed with reaction buffer and probe, and reacted for 30 minutes at room temperature. For purposes of supershift, they were reacted for 1 hour at 4° C. before being reacted with the probe. The reaction solution was electrophoresed for about 3 hours at 100v, 50 mA in non-denatured gel. The gel was dried, and analyzed by autoradiography using a Fujii BAS2000.

Ets1 = target: T1, Ets1 (UniProt P27577 P27577:1-440); assay: EMSA; in vitro translated; supershift
T1 sequence: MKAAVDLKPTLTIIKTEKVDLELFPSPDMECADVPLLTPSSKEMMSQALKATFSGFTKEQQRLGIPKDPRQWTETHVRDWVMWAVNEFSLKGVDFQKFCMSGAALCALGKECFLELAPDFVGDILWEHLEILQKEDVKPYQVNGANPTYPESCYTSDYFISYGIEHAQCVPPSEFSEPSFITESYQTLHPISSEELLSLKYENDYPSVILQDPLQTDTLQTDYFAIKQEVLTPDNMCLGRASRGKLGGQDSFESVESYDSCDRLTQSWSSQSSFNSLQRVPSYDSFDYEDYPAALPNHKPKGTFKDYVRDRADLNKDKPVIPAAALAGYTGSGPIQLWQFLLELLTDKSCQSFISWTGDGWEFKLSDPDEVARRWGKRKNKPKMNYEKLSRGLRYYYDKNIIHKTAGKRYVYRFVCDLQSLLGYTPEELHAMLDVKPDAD
Procedure: as §1, §2

GABPα = target: T2, GABPα (UniProt Q00422 Q00422:1-454); assay: EMSA; in vitro translated; supershift
T2 sequence: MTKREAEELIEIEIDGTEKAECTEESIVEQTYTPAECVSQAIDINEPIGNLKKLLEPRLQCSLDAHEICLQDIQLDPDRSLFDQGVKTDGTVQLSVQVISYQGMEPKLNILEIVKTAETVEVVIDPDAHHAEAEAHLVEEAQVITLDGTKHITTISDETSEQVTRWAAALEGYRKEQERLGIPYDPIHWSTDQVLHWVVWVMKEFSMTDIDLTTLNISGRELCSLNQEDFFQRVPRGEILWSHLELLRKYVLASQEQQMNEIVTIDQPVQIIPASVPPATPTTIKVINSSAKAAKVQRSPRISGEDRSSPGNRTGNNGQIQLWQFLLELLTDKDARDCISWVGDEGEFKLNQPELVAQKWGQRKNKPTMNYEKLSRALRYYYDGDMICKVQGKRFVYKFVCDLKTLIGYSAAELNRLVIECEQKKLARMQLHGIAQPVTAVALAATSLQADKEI
Procedure: as §1, §2

Fli-1 = target: T3, Fli-1 (UniProt P26323 P26323:1-452); assay: EMSA; in vitro translated; supershift
T3 sequence: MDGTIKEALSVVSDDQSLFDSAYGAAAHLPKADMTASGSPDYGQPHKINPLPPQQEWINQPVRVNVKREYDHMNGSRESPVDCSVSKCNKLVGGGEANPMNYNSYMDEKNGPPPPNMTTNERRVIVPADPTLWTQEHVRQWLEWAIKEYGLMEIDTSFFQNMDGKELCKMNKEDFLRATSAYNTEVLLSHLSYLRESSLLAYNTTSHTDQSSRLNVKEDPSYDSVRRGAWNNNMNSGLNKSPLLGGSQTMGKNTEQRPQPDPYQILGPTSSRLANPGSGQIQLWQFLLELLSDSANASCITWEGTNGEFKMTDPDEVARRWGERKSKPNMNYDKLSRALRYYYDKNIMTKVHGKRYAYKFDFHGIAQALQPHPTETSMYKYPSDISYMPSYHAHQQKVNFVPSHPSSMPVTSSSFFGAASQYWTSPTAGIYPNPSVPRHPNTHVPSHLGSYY
Procedure: as §1, §2

Measured: binding result

Chain of GABPα/GABPβ complex (Q00420 2-383, one chain of several): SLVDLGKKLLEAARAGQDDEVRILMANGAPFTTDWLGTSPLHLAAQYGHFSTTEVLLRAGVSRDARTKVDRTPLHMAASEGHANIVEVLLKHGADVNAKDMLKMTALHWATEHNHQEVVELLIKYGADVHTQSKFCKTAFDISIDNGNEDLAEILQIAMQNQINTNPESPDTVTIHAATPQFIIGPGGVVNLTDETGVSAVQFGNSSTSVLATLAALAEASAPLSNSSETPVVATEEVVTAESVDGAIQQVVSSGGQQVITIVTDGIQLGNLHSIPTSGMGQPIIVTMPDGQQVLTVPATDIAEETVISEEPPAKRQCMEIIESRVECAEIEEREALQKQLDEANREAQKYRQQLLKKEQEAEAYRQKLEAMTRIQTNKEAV

B1: EBS WT (-85 to -70) (dsDNA)
DNA 1: GCGCCGCCGGAAGTGA
DNA 2: TCACTTCCGGCGGCGC
binds: all assays above
